Test results taken from patent US20240270821A1, “GIP/GLP1/GCG TRI-RECEPTOR AGONISTS AND USES THEREOF” (priority 2023, published 2024).

B1: Example 982 (peptide)
chain: YXQGTFTSDXSXXLDKKAQXAFIEYLIAGGPSSGEPPPSGTEEE
modifications: synthetic construct; SITE 2: note = 2-Aminoisobutyric Acid; SITE 10: note = 3-(4-Pyridyl)-L-alanine; SITE 12: note = L-ornithine; SITE 13: note = alpha-methyl-leucine; SITE 17: note = Lysine is chemically modified through conjugation of the epsilon-amino group of the Lysine side chain with (gamma-Gl)
B2: Example 986 (peptide)
chain: YXQGTFTSDXSQXLDXKAQXAFIEYLIAGGPSSGEPPPSGTEEE
modifications: synthetic construct; SITE 2: note = 2-Aminoisobutyric Acid; SITE 10: note = 3-(4-Pyridyl)-L-alanine; SITE 13: note = alpha-methyl-leucine; SITE 16: note = L-ornithine; SITE 17: note = Lysine is chemically modified through conjugation of the epsilon-amino group of the Lysine side chain with (gamma-Gl)
B3: Example 968 (peptide)
chain: YXQGTFTSDXSQXLDKKAQXAFIEYLIAGGPSSGEPPPSGS
modifications: synthetic construct; SITE 2: note = 2-Aminoisobutyric Acid; SITE 10: note = 3-(4-Pyridyl)-L-alanine; SITE 13: note = alpha-methyl-leucine; SITE 17: note = Lysine is chemically modified through conjugation of the epsilon-amino group of the Lysine side chain with (gamma-Glu)2-CO-(CH2)16-CO2H; SITE 20:
B4: Example 969 (peptide)
chain: YXQGTFTSDXSQXLDKKAQXAFIEYLIAGGPSSGAPPPEGS
modifications: synthetic construct; SITE 2: note = 2-Aminoisobutyric Acid; SITE 10: note = 3-(4-Pyridyl)-L-alanine; SITE 13: note = alpha-methyl-leucine; SITE 17: note = Lysine is chemically modified through conjugation of the epsilon-amino group of the Lysine side chain with (gamma-Glu)2-CO-(CH2)16-CO2H; SITE 20:
B5: Example 991 (peptide)
chain: YXQGTFTSDXSXXLDXKAQXAFIEXLIEXGPSSGEPPPSGS
modifications: Aib, 4Pal, Orn, Me4Pal, lipidated Lys, C-terminal amide; synthetic construct; SITE 2: note = 2-Aminoisobutyric Acid; SITE 10: note = 3-(4-Pyridyl)-L-alanine; SITE 12: note = L-ornithine; SITE 13: note = alpha-methyl-leucine; SITE 16: note = L-ornithine; SITE 17: note = Lysine is chemically modified through conjugation of the epsilon-amino group of the Lys
B6: Example 987 (peptide)
chain: YXQGTFTSDXSXXLDKKAQXAFIEXLIEXGPSSGEPPPSGS
modifications: Aib, 4Pal, Orn, αMeL, Me4Pal, acylated K, C-terminal amide; synthetic construct; SITE 2: note = 2-Aminoisobutyric Acid; SITE 10: note = 3-(4-Pyridyl)-L-alanine; SITE 12: note = L-ornithine; SITE 13: note = alpha-methyl-leucine; SITE 17: note = Lysine is chemically modified through conjugation of the epsilon-amino group of the Lysine side chain with (2-[2-(2-
B7: Example 989 (peptide)
chain: YXQGTFTSDXSXXLDKKAQXAFIEXLIEXGPSSGEPPPSGS
modifications: Lys acylated (γ-Glu)2-C18 diacid; non-natural residues; C-terminal amide; synthetic construct; SITE 2: note = 2-Aminoisobutyric Acid; SITE 10: note = 3-(4-Pyridyl)-L-alanine; SITE 12: note = L-ornithine; SITE 13: note = alpha-methyl-leucine; SITE 17: note = Lysine is chemically modified through conjugation of the epsilon-amino group of the Lysine side chain with (gamma-Gl)
B8: Example 979 (peptide)
chain: YXQGTFTSDXSXXLDKKAQXAFIEYLIAGGPSSGEPPPSGE
modifications: synthetic construct; SITE 2: note = 2-Aminoisobutyric Acid; SITE 10: note = 3-(4-Pyridyl)-L-alanine; SITE 12: note = L-ornithine; SITE 13: note = alpha-methyl-leucine; SITE 17: note = Lysine is chemically modified through conjugation of the epsilon-amino group of the Lysine side chain with (gamma-Gl)
B9: Example 983 (peptide)
chain: YXQGTFTSDXSXXLDXKAQXAFIEYLIAGGPSSGEPPPSGE
modifications: Lys acylated (γ-Glu)2-C18 diacid; non-natural residues; C-terminal amide; synthetic construct; SITE 2: note = 2-Aminoisobutyric Acid; SITE 10: note = 3-(4-Pyridyl)-L-alanine; SITE 12: note = L-ornithine; SITE 13: note = alpha-methyl-leucine; SITE 16: note = L-ornithine; SITE 17: note = Lysine is chemically modified through conjugation of the epsilon-amino group of the Lys
B10: Example 978 (peptide)
chain: YXQGTFTSDXSQXLDXKAQXAFIEYLIAGGPSSGEPPPSGSGE
modifications: synthetic construct; SITE 2: note = 2-Aminoisobutyric Acid; SITE 10: note = 3-(4-Pyridyl)-L-alanine; SITE 13: note = alpha-methyl-leucine; SITE 16: note = L-ornithine; SITE 17: note = Lysine is chemically modified through conjugation of the epsilon-amino group of the Lysine side chain with (gamma-Gl)
B11: Example 967 (peptide)
chain: YXQGTFTSDXSXXLDKKAQXAFIEXLIEGGPSSGAPPPSGSEE
modifications: Aib, 4Pal, Orn, Me4Pal, αMeY; acylated lysine; amide; synthetic construct; SITE 2: note = 2-Aminoisobutyric Acid; SITE 10: note = 3-(4-Pyridyl)-L-alanine; SITE 12: note = L-ornithine; SITE 13: note = alpha-methyl-leucine; SITE 17: note = Lysine is chemically modified through conjugation of the epsilon-amino group of the Lysine side chain with (gamma-Gl)
B12: Example 992 (peptide)
chain: YXQGTFTSDXSXXLDXKAQXQFIEXLIAGGPSSGAPPPSGSEE
modifications: non-natural residues (Aib, 4Pal, Orn, Me4Pal, αMeY); lipidated Lys; C-amide; synthetic construct; SITE 2: note = 2-Aminoisobutyric Acid; SITE 10: note = 3-(4-Pyridyl)-L-alanine; SITE 12: note = L-ornithine; SITE 13: note = alpha-methyl-leucine; SITE 16: note = L-ornithine; SITE 17: note = Lysine is chemically modified through conjugation of the epsilon-amino group of the Lys
B13: Example 971 (peptide)
chain: YXQGTFTSDXSQXLDKKAQXAFIEYLIAGGPSSGEPPPSGSGE
modifications: synthetic construct; SITE 2: note = 2-Aminoisobutyric Acid; SITE 10: note = 3-(4-Pyridyl)-L-alanine; SITE 13: note = alpha-methyl-leucine; SITE 17: note = Lysine is chemically modified through conjugation of the epsilon-amino group of the Lysine side chain with (gamma-Glu)2-CO-(CH2)16-CO2H; SITE 20:
B14: Example 976 (peptide)
chain: YXQGTFTSDXSXXLDXKAQXEFIEXLLEGGPSSGAPPPSGSEE
modifications: non-natural residues; lipidated Lys; C-terminal amide; synthetic construct; SITE 2: note = 2-Aminoisobutyric Acid; SITE 10: note = 3-(4-Pyridyl)-L-alanine; SITE 12: note = L-ornithine; SITE 13: note = alpha-methyl-leucine; SITE 16: note = L-ornithine; SITE 17: note = Lysine is chemically modified through conjugation of the epsilon-amino group of the Lys
B15: Example 995 (peptide)
chain: YXQGTFTSDXSXXLDXKAQXQFIEXLLAGGPSSGAPPPSGSEE
modifications: non-natural residues, (γGlu)2-diacid acylated Lys, C-terminal amide; synthetic construct; SITE 2: note = 2-Aminoisobutyric Acid; SITE 10: note = 3-(4-Pyridyl)-L-alanine; SITE 12: note = L-ornithine; SITE 13: note = alpha-methyl-leucine; SITE 16: note = L-ornithine; SITE 17: note = Lysine is chemically modified through conjugation of the epsilon-amino group of the Lys

Key:
Test in all cases: cell-based or functional assay
hGLP-1R = hGLP-1R (Homo sapiens, UniProt P43220)
[1] = target: T1, human GIP receptor (human) (UniProt P48546)
T1 sequence (looked up): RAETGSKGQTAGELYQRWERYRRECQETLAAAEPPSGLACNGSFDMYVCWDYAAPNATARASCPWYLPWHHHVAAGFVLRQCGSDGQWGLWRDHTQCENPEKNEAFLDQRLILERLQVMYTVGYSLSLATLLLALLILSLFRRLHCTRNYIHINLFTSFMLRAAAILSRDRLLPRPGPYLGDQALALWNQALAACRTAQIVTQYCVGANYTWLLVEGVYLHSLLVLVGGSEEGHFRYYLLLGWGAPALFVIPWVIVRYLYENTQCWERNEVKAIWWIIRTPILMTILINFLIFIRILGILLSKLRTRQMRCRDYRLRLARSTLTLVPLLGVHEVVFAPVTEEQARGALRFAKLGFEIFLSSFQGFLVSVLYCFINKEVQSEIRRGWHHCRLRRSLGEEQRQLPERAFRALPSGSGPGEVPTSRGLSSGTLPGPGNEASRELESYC

[2] = target: human glucagon receptor (human) (UniProt P47871)
human glucagon receptor (human), sequence (P47871 26-477): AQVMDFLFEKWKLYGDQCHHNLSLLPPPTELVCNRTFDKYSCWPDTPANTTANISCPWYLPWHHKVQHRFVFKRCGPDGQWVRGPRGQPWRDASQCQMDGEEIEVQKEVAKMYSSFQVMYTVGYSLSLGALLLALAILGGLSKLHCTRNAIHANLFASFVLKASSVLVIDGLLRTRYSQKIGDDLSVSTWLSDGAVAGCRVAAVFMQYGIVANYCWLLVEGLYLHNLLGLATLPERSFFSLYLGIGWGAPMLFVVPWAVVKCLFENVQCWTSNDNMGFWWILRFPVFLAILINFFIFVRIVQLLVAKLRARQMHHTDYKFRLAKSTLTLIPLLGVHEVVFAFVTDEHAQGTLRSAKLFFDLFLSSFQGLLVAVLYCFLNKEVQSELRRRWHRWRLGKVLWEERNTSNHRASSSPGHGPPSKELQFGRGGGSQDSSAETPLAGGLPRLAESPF

hGLP-1R, sequence (P43220 24-463): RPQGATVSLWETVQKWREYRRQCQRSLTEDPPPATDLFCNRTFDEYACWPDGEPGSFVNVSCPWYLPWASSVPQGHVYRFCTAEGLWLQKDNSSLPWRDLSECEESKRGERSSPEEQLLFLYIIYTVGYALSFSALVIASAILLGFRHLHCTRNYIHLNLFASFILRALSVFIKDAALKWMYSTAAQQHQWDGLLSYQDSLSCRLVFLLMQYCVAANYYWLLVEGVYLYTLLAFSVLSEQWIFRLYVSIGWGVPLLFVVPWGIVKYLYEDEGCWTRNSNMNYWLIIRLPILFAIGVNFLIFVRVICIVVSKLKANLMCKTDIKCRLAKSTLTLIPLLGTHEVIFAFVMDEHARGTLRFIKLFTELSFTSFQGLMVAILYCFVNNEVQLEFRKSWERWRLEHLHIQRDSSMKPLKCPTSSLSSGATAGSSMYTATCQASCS

Binder	Relative cAMP EC50 (hGLP-1R) [nM]	cAMP Rel EC50, nM (1% HSA) (hGLP-1R) [nM]	Relative cAMP EC50 [1] [nM]	cAMP Rel EC50, nM (1% HSA) [1] [nM]	Relative cAMP EC50 [2] [nM]	cAMP Rel EC50, nM (1% HSA) [2] [nM]
B1	4.94	310	0.328	19.4	3.91	307
B2	3.06	380	0.299	31.3	4.94	702
B3	1.04	103	0.0928	11.7	4.72	625
B4	1.21	113	0.142	12.6	5.48	660
B5	3.91	315	0.119	14.8	3.03	405
B6	6.33	515	0.194	11.7	3.62	267
B7	3.92	402	0.103	8	2.27	247
B8	2.72	257	0.181	19.2	3.34	359
B9	2.35	207	0.289	19.4	4.75	576
B10	1.6	174	0.284	33.9	8.91	824
B11	–	345	–	39.5	–	508
B12	–	643	–	12.5	–	863
B13	3.46	294	0.298	30.2	8.26	1340
B14	–	2860	–	82.7	–	848
B15	–	1660	–	6.12	–	295
